The values that follow are results of earlier work, collected in paper doi:10.1101/429795.

In this data set the target is Cys164 (UniProt position 164, MYQQGCFAGGT). The data set is described as follows: chemical modification.

For “Chalcone synthase (MsCHS; CHS2) (Medicago sativa)”, the pKa was 5.5.
